Assay results from the supplement of paper PMC11136658.

Test system: peptide library, one residue held at a place counted from the Y acceptor
Test: relative phosphorylation of the sub-library (ratio to the mean residue at this position); higher = residue favoured
Procedure, shortened: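 In 384-well plates, purified recombinant kinases were incubated for 90 min with 50 μM ATP containing γ-32P-ATP and biotinylated Tyr-centred peptide libraries, each mixture fixing one residue at a single position between −5 and +5. After capture on streptavidin membranes and rinsing, peptides were quantified by phosphorimaging with ImageQuant. Per-position intensities were scaled to the sum of the 18 (Ser/Thr-free library: 16) randomized residues, then multiplied by that number.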

Sequence of ERBB4, construct: aa682-993, human (Q15303 682-993, looked up): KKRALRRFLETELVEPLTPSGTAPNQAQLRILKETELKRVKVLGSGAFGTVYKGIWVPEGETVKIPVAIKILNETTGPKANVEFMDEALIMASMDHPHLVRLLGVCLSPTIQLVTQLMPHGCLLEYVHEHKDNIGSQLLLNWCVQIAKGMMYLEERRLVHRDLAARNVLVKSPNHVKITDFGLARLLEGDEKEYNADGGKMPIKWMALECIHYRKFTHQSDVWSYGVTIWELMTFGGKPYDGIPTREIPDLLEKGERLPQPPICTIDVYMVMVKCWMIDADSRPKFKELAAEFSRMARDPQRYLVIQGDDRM

ERBB2, construct: aa676-end, human (from UniProt P04626)
relative phosphorylation
Settings	at +1	at +2	at +3	at +4	at +5	at -1	at -2	at -3	at -4	at -5
A fixed	0.734	0.684	0.603	0.869	1.51	0.72	0.953	0.764	0.972	0.899
D fixed	0.56	1.04	0.571	0.774	0.521	1.88	1.26	1.48	1.19	1.04
E fixed	0.87	1.19	0.493	0.79	0.575	1.91	1.58	1.88	1.41	0.983
F fixed	1.73	1.58	2.19	1.09	0.958	1.12	0.99	1.27	1.02	1.06
G fixed	0.526	0.504	0.621	0.943	1.06	0.567	1.15	1	1.2	1.12
H fixed	1.18	0.884	0.867	1.02	1.61	0.846	0.936	0.855	0.872	1.04
I fixed	1.5	0.984	1.86	0.764	0.878	1.62	0.932	0.726	0.985	0.909
K fixed	0.462	0.78	0.474	0.991	0.87	0.476	0.674	0.659	0.834	0.992
L fixed	1.53	0.938	1.51	0.8	1.13	1.28	0.973	0.963	0.994	1.06
M fixed	1.17	0.924	1.26	1.23	1.25	0.986	0.837	0.937	0.959	1.01
N fixed	0.59	1.03	0.65	0.843	0.667	1.07	1.08	1.1	1.01	1.14
P fixed	0.395	0.714	0.72	1.18	1	0.617	0.922	0.795	0.924	0.987
Q fixed	0.923	1.02	0.821	0.959	0.679	0.849	1.07	0.876	1.17	1.04
R fixed	0.555	0.837	0.669	1.18	1.28	0.506	0.825	0.824	0.952	1.03
S fixed	0.757	0.928	0.608	0.808	0.849	0.693	0.921	0.989	0.851	0.887
T fixed	0.943	0.874	0.68	0.844	0.944	0.811	0.966	0.948	0.761	0.883
V fixed	2	0.98	1.26	0.807	1.08	1.3	1.03	0.851	0.814	0.915
W fixed	1.59	2.12	2.14	2.11	1.14	0.748	0.91	1.08	1.1	0.991
pThr fixed	1.22	1.36	0.495	0.755	0.514	1.99	1.7	1.7	1.26	1.14
pTyr fixed	6.36	3.29	0.953	0.93	0.82	3.1	1.62	2.2	1.91	1.25

ERBB4, construct: aa682-993, human (from UniProt Q15303)
relative phosphorylation
Settings	at +1	at +2	at +3	at +4	at +5	at -1	at -2	at -3	at -4	at -5
A fixed	1	0.674	0.487	0.87	1.07	0.611	1.41	0.86	1.34	1.06
D fixed	0.859	1.43	0.443	0.917	0.946	2.49	1.76	1.84	1.36	1.25
E fixed	1.87	2.03	0.446	1.07	0.98	2.43	2.11	2.33	1.62	1.1
F fixed	1.07	1.32	2.24	1.18	1.25	0.62	0.599	0.925	1.12	1.08
G fixed	0.413	0.375	0.427	1.13	1.14	0.519	1.04	0.941	1.09	0.998
H fixed	0.893	0.725	0.757	0.987	0.865	0.81	0.877	0.81	0.757	1
I fixed	1.93	1.14	2.4	0.846	0.858	1.96	0.757	0.647	0.789	0.823
K fixed	0.252	0.401	0.211	0.647	0.903	0.297	0.514	0.691	0.733	0.913
L fixed	1.03	0.97	1.97	0.758	1.01	1.21	0.826	0.859	0.931	0.936
M fixed	1.12	0.975	1.43	0.922	0.959	0.876	0.57	0.842	0.757	0.892
N fixed	0.453	0.909	0.439	0.635	0.757	1.24	1.08	1.37	0.863	1.16
P fixed	0.345	0.691	0.616	1.28	1.49	0.503	1.22	0.964	1.14	0.907
Q fixed	1.09	0.79	0.475	0.838	0.757	0.955	1.12	0.962	1.45	1.23
R fixed	0.318	0.58	0.328	0.769	0.864	0.333	0.508	0.602	0.65	0.897
S fixed	0.678	0.839	0.6	1.06	1.13	0.506	1.03	0.981	0.882	0.903
T fixed	1.1	1.05	0.563	0.87	1.02	1.01	0.872	0.924	0.537	0.79
V fixed	2.46	1.2	1.46	0.93	0.911	1.11	1.16	0.697	0.836	0.815
W fixed	1.11	1.9	2.71	2.28	1.09	0.522	0.541	0.759	1.13	1.25
pThr fixed	2.75	2.29	0.524	1.01	1.01	3.76	2.43	2.64	1.41	1.21
pTyr fixed	15.4	5.38	1.12	1.4	1.13	2.48	2.59	2.35	1.62	1.31
